Measurements: US10392620B2, “Cytochrome B (CYTB) nucleic acid molecules that control pathogens” (Dow AgroSciences LLC, priority 2016, dated 2019)

B1: MgCytB-T6: 258 bp dsRNA of Zymoseptoria CytB region T6, location 775-1032 (SEQ ID NO:9) (nucleic acid, listed as Zymoseptoria tritici)
chain: GTTATGGCTAACCCTATGCAAACTCCACCTGCTATAGTGCCTGAATGATATTTATTACCTTTCTACGCTATACTAAGATCAATACCTAACAAACTATTAGGTGTGATCGCAATGTTTTCTGCTATATTGATTATAATGATAATGCCAATTACCGATTTAGGTAGAAGTAGAGGATTACAGTTTAGACCTTTAAGCAAGATCACATTTTACATATTTGTTGCTAACTTCTTAGTATTAATGCAATTAGGTGCTAATCAC
modifications: complementary strand of dsRNA
B2: MgCytB-T3: 116 bp dsRNA of Zymoseptoria CytB region 3, location 279-394 (SEQ ID NO:6) (nucleic acid, listed as Zymoseptoria tritici)
chain: TTACCTGCACGTGGGTAGAGGGTTATACTACGGGTCATACAAAGCCCCTAGAACATTAACATGAACAATCGGTACTATAATACTAGTTCTGATGATGGCAACCGCATTCTTAGGGT
modifications: long dsRNA, chemistry not given here, further chemistry not given here
B3: MgCytB-T4: 219 bp dsRNA of Zymoseptoria CytB region T4, location 1-219 (SEQ ID NO:7) (nucleic acid, listed as Zymoseptoria tritici)
chain: ATGAGGATTTGGAAGAGTCACCCTTTATTTAGTCTGGTTAATGGTTATCTTATCGATTCACCACAACCAAGTAATCTAAGCTATCTATGAAATTTCGGTTCATTACTGGGATTTTGTCTTGTAATACAAATCGTTACTGGTGTTACACTTGCTATGCATTATAACCCTAGCGTATCTGAAGCATTTAACTCAGTTGAACACATAATGAGAGATGTAAAC
modifications: complementary strand of dsRNA
B4: MgCytB-T2: 203 bp dsRNA of Zymoseptoria CytB region 2, location 603-805 (SEQ ID NO:5) (nucleic acid, listed as Zymoseptoria tritici)
chain: ACACGATACAGCGGGTTCAGGAAATCCTTTAGGTGTATCAGGTAACTACGATAGATTACCATTCGCCCCTTACTTTATATTCAAAGATTTAATAACAATATTTTTATTCATTATAGTGTTATCAATATTTATTTTCTTTATGCCTAACGTTTTAGGTGACAGCGAGAATTATGTTATGGCTAACCCTATGCAAACTCCACCTG
modifications: complementary strand of dsRNA
B5: MgCytB-T5: 172 bp dsRNA of Zymoseptoria CytB region T5, location 173-344 (SEQ ID NO:8) (nucleic acid, listed as Zymoseptoria tritici)
chain: TATCTGAAGCATTTAACTCAGTTGAACACATAATGAGAGATGTAAACAATGGATGACTTATACGTTATCTTCACTCTAATACTGCTTCAGCTTTCTTCTTTTTAGTTTACCTGCACGTGGGTAGAGGGTTATACTACGGGTCATACAAAGCCCCTAGAACATTAACATGAAC
modifications: complementary strand of dsRNA
B6: MgCytB-T7: 221 bp dsRNA of Zymoseptoria CytB region T7, location 947-1167 (SEQ ID NO:10) (nucleic acid, listed as Zymoseptoria tritici)
chain: GATTACAGTTTAGACCTTTAAGCAAGATCACATTTTACATATTTGTTGCTAACTTCTTAGTATTAATGCAATTAGGTGCTAATCACGTTGAGTCACCATTTATAGAATTTGGGCAAATTAGTACAGTACTGTACTTTTCACATTTCTTAATCATAGTGCCTCTAGTAAGCTTAATCGAGAATACTTTAGTGGATATGCACTTAAACAACACAATAACGTAA
modifications: complementary strand of dsRNA
B7: MgCytB-T1: 267 bp dsRNA of Zymoseptoria CytB region 1, location 364-630 (SEQ ID NO:4) (nucleic acid, listed as Zymoseptoria tritici)
chain: GTTCTGATGATGGCAACCGCATTCTTAGGGTATGTATTACCTTATGGTCAAATGTCTTTATGAGGAGCAACAGTTATAACTAACTTATTGAGTGCAATACCTTGAGTTGGACAAGACATAGTTGAATTCGTATGAGGTGGATTTTCTGTTAACAATGCAACATTGAACAGATTCTTTGCTCTACATTTCGTTTTACCGTTTGTGTTAGCTGCATTAGTTTTAATGCATCTAATAGCTTTACACGATACAGCGGGTTCAGGAAATCCT
modifications: complementary strand of dsRNA

test system: Zymoseptoria tritici (SEPTTR-184); assay: Efficacy of target gene fragments (MgCytB dsRNA tiles) on wheat plants, SEPTTR-184; format: in vivo; parameters: Average of 2 trials SEPTTR-184 3DC / Average of 2 trials SEPTTR-184 1DP: scale not given here; settings: 1DP (preventative)
Method: The 200 ppm rate for each treatment was prepared by adding the calculated volume of the corresponding dsRNA solution in TE buffer. Lower rates were prepared as 4-fold dilutions (50 ppm, 12.5 ppm, and 3.12 ppm). A non-target dsRNA control (YFP), a TE/phosphate buffer control, disease pressure control, and clean plant control were included.
(§1) These plants were inoculated with an aqueous spore suspension of Zymoseptoria tritici either prior to or after fungicidal treatments. After inoculation the plants were kept in 100% relative humidity to allow spores to germinate and infect the leaves. The plants were then transferred to a greenhouse until disease developed.

Molecule	ED50 SEPTTR-184 1DP	ED80 SEPTTR-184 1DP
B1	<3.125 ppm	>200 ppm
B2	<3.125 ppm	>200 ppm
B3	<3.125 ppm	>200 ppm
B4	<3.125 ppm	>200 ppm
B5	<3.125 ppm	>200 ppm
B6	<3.125 ppm	>200 ppm
B7	<3.125 ppm	200 ppm

same assay, conditions: 1DP (preventative); average of 200, 50, 12.5, 3.125 ppm

Molecule	Disease Control All Rates Average SEPTTR-184 1DP
B1	73%
B2	68%
B3	73%
B4	71%
B5	71%
B6	69%
B7	66%

same assay, conditions: 1DP (preventative); sum over 200, 50, 12.5, 3.125 ppm

Molecule	Sum of Disease Control SEPTTR-184 1DP
B1	293%
B2	271%
B3	292%
B4	285%
B5	284%
B6	275%
B7	263%

same assay, conditions: 3DC (curative)

Molecule	ED50 SEPTTR-184 3DC	ED80 SEPTTR-184 3DC
B1	<3.125 ppm	>200 ppm
B2	<3.125 ppm	<3.125 ppm
B3	<3.125 ppm	44 ppm
B4	<3.125 ppm	27 ppm
B5	4.605 ppm	200 ppm
B6	<3.125 ppm	>200 ppm
B7	<3.125 ppm	159 ppm

same assay, conditions: 3DC (curative); average of 200, 50, 12.5, 3.125 ppm

Molecule	Disease Control All Rates Average SEPTTR-184 3DC
B1	60%
B2	84%
B3	79%
B4	82%
B5	66%
B6	74%
B7	79%

same assay, conditions: 3DC (curative); sum over 200, 50, 12.5, 3.125 ppm

Molecule	Sum of Disease Control SEPTTR-184 3DC
B1	239%
B2	334%
B3	316%
B4	329%
B5	265%
B6	297%
B7	318%

same assay, conditions: 3.125 ppm; 1DP (preventative)

Molecule	Average of 2 trials SEPTTR-184 1DP
B1	72
B2	59
B3	71
B4	67
B5	68
B6	60
B7	53

same assay, conditions: 3.125 ppm; 3DC (curative)

Molecule	Average of 2 trials SEPTTR-184 3DC
B1	53
B2	84
B3	76
B4	77
B5	47
B6	76
B7	77

same assay, conditions: 12.5 ppm; 1DP (preventative)

Molecule	Average of 2 trials SEPTTR-184 1DP
B1	77
B2	64
B3	74
B4	71
B5	68
B6	69
B7	58

same assay, conditions: 12.5 ppm; 3DC (curative)

Molecule	Average of 2 trials SEPTTR-184 3DC
B1	63
B2	84
B3	75
B4	77
B5	66
B6	72
B7	76

same assay, conditions: 50 ppm; 1DP (preventative)

Molecule	Average of 2 trials SEPTTR-184 1DP
B1	72
B2	74
B3	73
B4	71
B5	73
B6	71
B7	71

same assay, conditions: 50 ppm; 3DC (curative)

Molecule	Average of 2 trials SEPTTR-184 3DC
B1	64
B2	81
B3	81
B4	85
B5	72
B6	73
B7	79

same assay, conditions: 200 ppm; 1DP (preventative)

Molecule	Average of 2 trials SEPTTR-184 1DP
B1	72
B2	74
B3	74
B4	77
B5	76
B6	75
B7	80

same assay, conditions: 200 ppm; 3DC (curative)

Molecule	Average of 2 trials SEPTTR-184 3DC
B1	59
B2	84
B3	83
B4	90
B5	80
B6	76
B7	85

same assay, conditions: in vivo

Molecule	level of control, ranking among fragments
B2	best level of control

test system: Zymoseptoria tritici (SEPTTR) US-184; assay: CytB dsRNA foliar application bioassay on wheat seedlings, SEPTTR US-184; format: in vivo; settings: compared to the non-treated control; strain not given
Method: RNAi (dsRNA) fungicidal solutions were prepared in TE buffer (pH 8.0), which were then mixed with 9 volumes of phosphate buffer (pH 7.5) containing 0.1% Triton X-100. The fungicidal solutions were applied to wheat seedlings using an automated booth sprayer to run-off. All sprayed plants were allowed to air dry prior to further handling.
The following served as controls: 1% silwet in phosphate buffer control, disease pressure control (untreated), and clean plant control (negative control).
as §1

Molecule	control of Septoria leaf blotch on wheat seedlings
B2	observed to control Septoria leaf blotch
B4	observed to control Septoria leaf blotch
B7	observed to control Septoria leaf blotch
